Read-outs that look alike come from different tables or passages of the source.
Experiments:
[1] = target: CD47 on human CD45 negative red blood cells (human, UniProt Q08722 19-323); test: FACS cell binding
Cyno monkey CD47 [2] = target: T1, Cyno monkey CD47 (Cyno monkey, UniProt A0A2K5X523 19-139); test: BLI (Octet)
T1 chain: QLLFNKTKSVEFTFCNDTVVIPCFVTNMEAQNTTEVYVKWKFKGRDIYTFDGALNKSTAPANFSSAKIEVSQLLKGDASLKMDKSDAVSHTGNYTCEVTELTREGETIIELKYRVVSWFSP

rat CD47 = target: T2, rat CD47 (rat, UniProt P97829 19-140); test: BLI (Octet)
T2 chain: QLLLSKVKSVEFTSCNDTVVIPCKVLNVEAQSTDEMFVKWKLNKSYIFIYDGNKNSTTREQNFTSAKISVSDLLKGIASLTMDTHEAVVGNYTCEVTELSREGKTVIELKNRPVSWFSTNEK

mouse CD47 = target: T3, mouse CD47 (mouse, UniProt Q61735 19-140); test: BLI (Octet)
T3 chain: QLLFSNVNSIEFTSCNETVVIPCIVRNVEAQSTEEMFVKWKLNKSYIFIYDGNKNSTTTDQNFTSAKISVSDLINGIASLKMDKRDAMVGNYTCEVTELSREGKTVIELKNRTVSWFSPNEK

rhCD47-his (human CD47) [3] = target: T4, rhCD47-his (human CD47) (human, UniProt Q08722 19-139); test: BLI (Octet)
Cyno monkey CD47 [4] = target: T1, Cyno monkey CD47; test: BLI (Octet)
rhCD47-his (human CD47) [5] = target: T4, rhCD47-his (human CD47); test: BLI (Octet); remark: listed apart in the source

Binder | EC50 [1] | Kd (Cyno monkey CD47 [2]) | Kd (rat CD47) | Kd (mouse CD47) | Kd (rhCD47-his (human CD47) [3]) | Kd (Cyno monkey CD47 [4]) | Kd (rhCD47-his (human CD47) [5])
Construct 50 (SIRPα fusion polypeptide SEQ ID NO: 10 construct without the YTE mutation, i.e. with the wild type IgG4 Fc domain) (Fc fusion) EEELQIIQPDKSVLVAAGETATLRCTITSLFPVGPIQWFRGAGPGRVLIYNQRQGPFPRVTTVSDTTKRNNMDFSIRIGNITPADAGTYYCIKFRKGSPDDVEFKSGAGTELSVRAKPSAAAPPCPPCPAPEFLGGPSVFLFPPKPKDTLMISRTPEVTCVVVDVSQEDPEVQFNWYVDGVEVHNAKTKPREEQFNSTYRVVSVLTVLHQDWLNGKEYKCKVSNKGLPSSIEKTISKAKGQPREPQVYTLPPSQEEMTKNQVSLTCLVKGFYPSDIAVEWESNGQPENNYKTTPPVLDSDGSFFLYSRLTVDKSRWQEGNVFSCSVMHEALHNHYTQKSLSLSLGK | 12 nM | 0.0974 nM | 1.03 nM | 5.12 nM | 0.03 nM | 0.0974 nM | 0.03 nM
Construct 67 (SIRPα fusion polypeptide of SEQ ID NO: 10, SIRPα domain of SEQ ID NO: 2 and IgG4 Fc domain with a YTE mutation) (Fc fusion) EEELQIIQPDKSVLVAAGETATLRCTITSLFPVGPIQWFRGAGPGRVLIYNQRQGPFPRVTTVSDTTKRNNMDFSIRIGNITPADAGTYYCIKFRKGSPDDVEFKSGAGTELSVRAKPSAAAPPCPPCPAPEFLGGPSVFLFPPKPKDTLYITREPEVTCVVVDVSQEDPEVQFNWYVDGVEVHNAKTKPREEQFNSTYRVVSVLTVLHQDWLNGKEYKCKVSNKGLPSSIEKTISKAKGQPREPQVYTLPPSQEEMTKNQVSLTCLVKGFYPSDIAVEWESNGQPENNYKTTPPVLDSDGSFFLYSRLTVDKSRWQEGNVFSCSVMHEALHNHYTQKSLSLSLGK | 5.8 nM | 0.0211 nM | 0.681 nM | 1.61 nM | 0.0117 nM | 0.0211 nM | 0.0117 nM

Source: patent US20230365648A1 (published 2023)
